Measured values reported in paper PMC11589140 (2024).

B1: HA-tagged RUNX1T1, wild type [human] / FLAG-tagged GFI-1 [not stated] (parent complex)
chain 1: MISVKRNTWRALSLVIGDCRKKGNFEYCQDRTEKHSTMPDSPVDVKTQSRLTPPTMPPPPTTQGAPRTSSFTPTTLTNGTSHSPTALNGAPSPPNGFSNGPSSSSSSSLANQQLPPACGARQLSKLKRFLTTLQQFGNDISPEIGERVRTLVLGLVNSTLTIEEFHSKLQEATNFPLRPFVIPFLKANLPLLQRELLHCARLAKQNPAQYLAQHEQLLLDASTTSPVDSSELLLDVNENGKRRTPDRTKENGFDREPLHSEHPSKRPCTISPGQRYSPNNGLSYQPNGLPHPTPPPPQHYRLDDMAIAHHYRDSYRHPSHRDLRDRNRPMGLHGTRQEEMIDHRLTDREWAEEWKHLDHLLNCIMDMVEKTRRSLTVLRRCQEADREELNYWIRRYSDAEDLKKGGGSSSSHSRQQSPVNPDPVALDAHREFLHRPASGYVPEEIWKKAEEAVNEVKRQAMTELQKAVSEAERKAHDMITTERAKMERTVAEAKRQAAEDALAVINQQEDSSESCWNCGRKASETCSGCNTARYCGSFCQHKDWEKHHHICGQTLQAQQQGDTPAVSSSVTPNSGAGSPMDTPPAATPRSTTPGTPSTIETTPR
chain 2: not shown
B2: HA-tagged RUNX1T1, wild type [human] / FLAG-tagged Sin3A [not stated] (parent complex)
chain 1: B1 chain 1
chain 2: MKRRLDDQESPVYAAQQRRIPGSTEAFPHQHRVLAPAPPVYEAVSETMQSATGIQYSVTPSYQVSAMPQSSGSHGPAIAAVHSSHHHPTAVQPHGGQVVQSHAHPAPPVAPVQGQQQFQRLKVEDALSYLDQVKLQFGSQPQVYNDFLDIMKEFKSQSIDTPGVISRVSQLFKGHPDLIMGFNTFLPPGYKIEVQTNDMVNVTTPGQVHQIPTHGIQPQPQPPPQHPSQPSAQSAPAPAQPAPQPPPAKVSKPSQLQAHTPASQQTPPLPPYASPRSPPVQPHTPVTISLGTAPSLQNNQPVEFNHAINYVNKIKNRFQGQPDIYKAFLEILHTYQKEQRNAKEAGGNYTPALTEQEVYAQVARLFKNQEDLLSEFGQFLPDANSSVLLSKTTAEKVDSVRNDHGGTVKKPQLNNKPQRPSQNGCQIRRHPTGTTPPVKKKPKLLNLKDSSMADASKHGGGTESLFFDKVRKALRSAEAYENFLRCLVIFNQEVISRAELVQLVSPFLGKFPELFNWFKNFLGYKESVHLETYPKERATEGIAMEIDYASCKRLGSSYRALPKSYQQPKCTGRTPLCKEVLNDTWVSFPSWSEDSTFVSSKKTQYEEHIYRCEDERFELDVVLETNLATIRVLEAIQKKLSRLSAEEQAKFRLDNTLGGTSEVIHRKALQRIYADKAADIIDGLRKNPSIAVPIVLKRLKMKEEEWREAQRGFNKVWREQNEKYYLKSLDHQGINFKQNDTKVLRSKSLLNEIESIYDERQEQATEENAGVPVGPHLSLAYEDKQILEDAAALIIHHVKRQTGIQKEDKYKIKQIMHHFIPDLLFAQRGDLSDVEEEEEEEMDVDEATGAVKKHNGVGGSPPKSKLLFSNTAAQKLRGMDEVYNLFYVNNNWYIFMRLHQILCLRLLRICSQAERQIEEENREREWEREVLGIKRDKSDSPAIQLRLKEPMDVDVEDYYPAFLDMVRSLLDGNIDSSQYEDSLREMFTIHAYIAFTMDKLIQSIVRQLQHIVSDEICVQVTDLYLAENNNGATGGQLNTQNSRSLLESTYQRKAEQLMSDENCFKLMFIQSQGQVQLTIELLDTEEENSDDPVEAERWSDYVERYMNSDTTSPELREHLAQKPVFLPRNLRRIRKCQRGREQQEKEGKEGNSKKTMENVDSLDKLECRFKLNSYKMVYVIKSEDYMYRRTALLRAHQSHERVSKRLHQRFQAWVDKWTKEHVPREMAAETSKWLMGEGLEGLVPCTTTCDTETLHFVSINKYRVKYGTVFKAP

Variants of: B1
Assay: co-immunoprecipitation (IP: HA) with densitometry quantification; HA-tagged RUNX1T1 and FLAG-tagged interactor co-expressed in HEK-293 cells; parent: 1; read off a plot

Variant | ratio to parent
chain 1 E146K | ~1.6
chain 1 E163K | ~1.6

Variants of: B2
Assay: as above

Variant | ratio to parent
chain 1 E163K | ~0.57
chain 1 E146K | ~2.6
